In the supplement of paper PMC10126150:
± gives the standard deviation of the averaged measurements.

Tested on: ATP
Test: switch fluorescence ratio, 500 uM ATP over buffer (Cy3 cluster intensity, sum of 5 cycles each) (fold (ratio)); higher = stronger signal-on switching upon ATP binding; sequences stand for … in TCGTCGGCAGCGTCAGATGTGTATAAGAGACAGTTTTTTTTTTTTTTTTTTTTTTTTT…TC
Conditions: aptamer strand: ATP DNA aptamer (quencher-CACCTGGGGGAGTATTGCGGAGGAAGG + anchor), 100 nM annealed; ATP concentration: 500 uM
Method in brief: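 Clusters carrying Cy3-labelled switching strands on a modified Illumina MiSeq flow-cell were annealed to 100 nM quencher-labelled ATP aptamer and imaged in selection buffer. They were imaged again after 15 min with 500 uM ATP at 22 °C, over five buffer/ATP cycles with NaOH stripping and re-annealing in between. For each cluster, the fluorescence ratio is the summed Cy3 intensity of the target cycles divided by that of the buffer cycles, averaged per switch-domain sequence. Clusters outside 100-1000 RFU were left out.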
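Also: ATP exposure 15 min at 22 °C before imaging.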

Sequence | switch fluorescence ratio
ACGGTGGAGT | 1.02 ± 0.054
ACGGTGGCGT | 1.02 ± 0.016
ACGGTGGTCA | 1.023 ± 0.0092
ACGGTGGTGG | 1.12 ± 0.12
ACGGTGTAGG | 1.11 ± 0.12
ACGGTGTCAC | 0.9774 ± 0.0012
ACGGTGTTAC | 1.11 ± 0.027
ACGGTTAGTG | 1.01 ± 0.018
ACGTAATAGC | 2.07 ± 0.13
ACGTACGGGT | 1.46 ± 0.12
ACGTAGTCAT | 1.04 ± 0.03
ACGTATCTCT | 1.17 ± 0.11
ACGTATGGGC | 1.082 ± 0.0027
ACGTATTTGT | 1.11 ± 0.013
ACGTCAAAGG | 1.37 ± 0.51
ACGTCCATTT | 1.06 ± 0.011
ACGTCCTGCT | 1.07 ± 0.011
ACGTCTACGC | 1.101 ± 0.0031
ACGTCTAGTG | 0.965 ± 0.023
ACGTCTTTGT | 1 ± 0.088
ACGTGATTCA | 1.03 ± 0.074
ACGTGCACGA | 1.01 ± 0.015
ACGTGCAGTG | 0.9525 ± 0.0085
ACGTGCGCAG | 1.07 ± 0.018
ACGTGCTCGG | 1.007 ± 0.01

Sequence | switch fluorescence ratio
ACGTGGCACA | 1.053 ± 0.0084
ACGTGTGCGG | 0.959 ± 0.031
ACGTGTGTGG | 0.989 ± 0.017
ACGTTAATGA | 1.121 ± 0.002
ACGTTCAGGG | 1.05 ± 0.059
ACGTTGAGGG | 1.06 ± 0.049
ACGTTGGACA | 1.12 ± 0.05
ACGTTGGCGG | 1 ± 0.013
ACGTTGTGGA | 1.027 ± 0.0075
ACGTTTGGTG | 0.962 ± 0.03
ACGTTTTTGT | 1.027 ± 0.0097
ACGTTTTTTG | 0.99 ± 0.015
ACTAAAAAGA | 1.07 ± 0.056
ACTAAAGAGC | 1.12 ± 0.2
ACTAAATCCT | 1.19 ± 0.02
ACTAACTTTC | 1.1 ± 0.097
ACTAAGAGTT | 1.03 ± 0.056
ACTAATACGA | 2.41 ± 1.8
ACTAATCGAA | 1.05 ± 0.013
ACTAATGCTT | 1.01 ± 0.034
ACTAATGTAT | 1 ± 0.014
ACTAATTATT | 1.03 ± 0.021
ACTACAGGCT | 1.026 ± 0.0035
ACTACGATGG | 1.05 ± 0.018
ACTACGCTTG | 1.29 ± 0.022

Sequence | switch fluorescence ratio
ACTAGAAATG | 0.984 ± 0.017
ACTAGAGCCA | 0.982 ± 0.011
ACTAGGCAAT | 1.96 ± 0.27
ACTAGGGGGA | 0.986 ± 0.023
ACTAGGTATG | 1.01 ± 0.032
ACTAGTAGGG | 1 ± 0.0095
ACTAGTCGGA | 1.03 ± 0.028
ACTATAATCA | 1.04 ± 0.026
ACTATAGTAT | 1 ± 0.057
ACTATGAACC | 1.051 ± 0.0016
ACTATGATAT | 1.018 ± 0.0073
ACTATGGAGC | 1.07 ± 0.077
ACTATGGGGA | 1.01 ± 0.0026
ACTATGTGTG | 0.99 ± 0.031
ACTATTCGCT | 1.02 ± 0.01
ACTATTCGGC | 0.982 ± 0.02
ACTATTGGGG | 0.989 ± 0.011
ACTCAATTAG | 1.025 ± 0.01
ACTCAATTAT | 1.02 ± 0.042
ACTCAGTTCT | 1.03 ± 0.016
ACTCATGGCA | 1.09 ± 0.046
ACTCATTTC | 1.03 ± 0.047
ACTCATTTTA | 1.02 ± 0.024
ACTCGAAAAA | 1.04 ± 0.026
ACTCGATTTT | 1.02 ± 0.033

Sequence | switch fluorescence ratio
ACTCGGCCC | 1.23 ± 0.015
ACTCGGCGGT | 2.14 ± 1.7
ACTCGGCTTG | 1.03 ± 0.023
ACTCGGGTGG | 1.019 ± 0.0096
ACTCTATACA | 1.11 ± 0.088
ACTGAAGGGG | 1.02 ± 0.059
ACTGAATTGG | 1.001 ± 0.0029
ACTGAGGAT | 0.9994 ± 0.003
ACTGAGGGGA | 1 ± 0.08
ACTGAGTTGG | 0.986 ± 0.013
ACTGATTTTA | 1.01 ± 0.056
ACTGCAGAGG | 1.08 ± 0.034
ACTGCGGGTC | 1.031 ± 0.0063
ACTGCTAATT | 1.08 ± 0.039
ACTGCTAGGG | 1.02 ± 0.013
ACTGGAGGGT | 1.02 ± 0.044
ACTGGCATTG | 1.02 ± 0.044
ACTGGCCCCG | 1.34 ± 0.41
ACTGGCTCCT | 1.02 ± 0.056
ACTGGGAAG | 1.05 ± 0.064
ACTGGGCCGT | 1.01 ± 0.046
ACTGGGGCCA | 0.972 ± 0.047
ACTGGGGCCG | 1.01 ± 0.056
ACTGGGGGTA | 1.01 ± 0.025
ACTGGGTATT | 0.963 ± 0.061

Sequence | switch fluorescence ratio
ACTGGTAACG | 1.02 ± 0.024
ACTGGTATA | 0.994 ± 0.032
ACTGTAAATT | 1.086 ± 0.0031
ACTGTAGGGC | 1.04 ± 0.04
ACTGTGCGCC | 1.01 ± 0.029
ACTGTGGGGT | 0.996 ± 0.022
ACTGTTATGA | 1.08 ± 0.058
ACTGTTATGG | 1.066 ± 0.0077
ACTGTTGGGG | 0.999 ± 0.02
ACTTAATAAC | 1.03 ± 0.013
ACTTAATTTG | 1 ± 0.044
ACTTACAGCT | 1.19 ± 0.017
ACTTAGCAA | 1.92 ± 0.092
ACTTAGTTAA | 1.02 ± 0.015
ACTTATCATT | 1.04 ± 0.013
ACTTATCCTT | 1.0512 ± 0.00011
ACTTATGCAT | 1.055 ± 0.0046
ACTTCACTCG | 1.42 ± 0.098
ACTTCCGTTC | 1.35 ± 0.017
ACTTCGGGTA | 1.003 ± 0.0017
ACTTCGTATG | 1.03 ± 0.011
ACTTGCACGT | 1.175 ± 0.0094
ACTTGCTTAC | 2 ± 0.022
ACTTGGAGCG | 1.018 ± 0.0092
ACTTGTAATG | 0.989 ± 0.049

Sequence | switch fluorescence ratio
ACTTGTGGGG | 0.973 ± 0.037
ACTTGTTGCG | 0.989 ± 0.056
ACTTTAGGGA | 0.974 ± 0.019
ACTTTCTGAC | 1.22 ± 0.24
ACTTTGCATT | 1.19 ± 0.038
ACTTTGGCC | 1.0113 ± 0.00058
ACTTTGGGGA | 1.033 ± 0.0065
ACTTTGGTAT | 0.982 ± 0.029
ACTTTTACA | 1.155 ± 0.0053
ACTTTTTGTG | 1 ± 0.013
AGAAAAAATG | 0.974 ± 0.05
AGAAAAACGG | 1.12 ± 0.25
AGAAAAATGG | 0.998 ± 0.02
AGAAAAGGGT | 0.997 ± 0.03
AGAAAAGGTT | 0.98 ± 0.021
AGAAACAAGG | 0.979 ± 0.027
AGAAACGTAT | 1.13 ± 0.013
AGAAAGACTT | 1.04 ± 0.047
AGAAAGAGGA | 0.987 ± 0.023
AGAAAGGGCC | 0.966 ± 0.055
AGAAAGGTCT | 1.026 ± 0.0085
AGAAATATAT | 1.23 ± 0.35
AGAAATGATA | 1.001 ± 0.0019
AGAAATTAGT | 1.03 ± 0.015
AGAAATTCGA | 1.03 ± 0.012

Sequence | switch fluorescence ratio
AGAACACAGT | 1.006 ± 0.0014
AGAACATTGG | 0.985 ± 0.013
AGAACCTTCG | 3.17 ± 0.38
AGAACGGTGG | 0.9693 ± 0.0096
AGAACTGTAA | 1.08 ± 0.034
AGAACTTTTT | 0.98 ± 0.011
AGAAGATGCT | 0.9797 ± 0.0088
AGAAGATGTG | 0.973 ± 0.059
AGAAGATTGG | 0.9723 ± 0.0053
AGAAGCCCCC | 1.02 ± 0.048
AGAAGGATGG | 0.983 ± 0.026
AGAAGGATTA | 1 ± 0.017
AGAAGGGCCC | 0.9967 ± 0.0016
AGAAGGGGCG | 1.02 ± 0.06
AGAAGGGGTT | 1.04 ± 0.053
AGAAGGTCGG | 1.01 ± 0.036
AGAAGTGCGG | 0.984 ± 0.032
AGAATAAGTT | 1.013 ± 0.0018
AGAATATTAG | 0.987 ± 0.037
AGAATATTGG | 0.982 ± 0.046
AGAATCAGGC | 1.04 ± 0.17
AGAATCCAGC | 0.982 ± 0.021
AGAATCCGGG | 0.97 ± 0.041
AGAATCGGCA | 0.997 ± 0.031
AGAATGCACG | 0.957 ± 0.035

Sequence | switch fluorescence ratio
AGAATGGCTT | 1 ± 0.041
AGAATGGTCG | 1.03 ± 0.03
AGAATGTGC | 0.9956 ± 0.0047
AGAATTATCT | 1 ± 0.024
AGAATTTGCG | 0.974 ± 0.018
AGACAAAGA | 0.967 ± 0.022
AGACAAAGCG | 1.03 ± 0.035
AGACAATATT | 0.979 ± 0.032
AGACAATTCA | 1.02 ± 0.019
AGACACATCC | 1.11 ± 0.022
AGACAGAGGG | 0.988 ± 0.012
AGACAGCAGC | 1.05 ± 0.011
AGACCGGGGA | 0.989 ± 0.033
AGACCGTTCG | 1.02 ± 0.0066
AGACCTAGAC | 1.05 ± 0.025
AGACCTTTTA | 1 ± 0.063
AGACGAGACT | 1.08 ± 0.03
AGACGAGGTA | 1.03 ± 0.05
AGACGAGTCT | 0.974 ± 0.03
AGACGGTAGC | 1.01 ± 0.026
AGACGTTATT | 1.15 ± 0.1
AGACTCCACC | 1.398 ± 0.0081
AGACTGGGGG | 0.997 ± 0.033
AGACTTTAAA | 1.01 ± 0.019
AGAGACTATT | 1.01 ± 0.0095
